Experimental data: PMC4971840

target: GST-CypA (human cyclophilin A fused to GST), P62937-1; assay: His6-HIVCA pull-down assay, SDS/PAGE band densitometry; conditions: n = 3; *P < 0.05; parent: est. 0.45; read off a plot

Substance | other: CypA/CA ratio
wild-type HIV-1 capsid protein with an N-terminal 6-his tag (His6-HIVCA) (from UniProt P04591) A77P | 0.063

same assay, conditions: n = 3; parent: est. 0.45; read off a plot

Substance | other: CypA/CA ratio
wild-type HIV-1 capsid protein with an N-terminal 6-his tag (His6-HIVCA) (from UniProt P04591) A78V | 0.43
wild-type HIV-1 capsid protein with an N-terminal 6-his tag (His6-HIVCA) (from UniProt P04591) L189I | 0.36
wild-type HIV-1 capsid protein with an N-terminal 6-his tag (His6-HIVCA) (from UniProt P04591) L189P | 0.43
wild-type HIV-1 capsid protein with an N-terminal 6-his tag (His6-HIVCA) (from UniProt P04591) W23A | 0.26
wild-type HIV-1 capsid protein with an N-terminal 6-his tag (His6-HIVCA) (from UniProt P04591) L189F | 0.53
